Assay results reported in patent US20030158389A1.
Where two headings read alike, the source gives them in different places.

Legend:
[1] = biological target: human C1q (Quidel, San Diego, Calif.) (human) (UniProt P02745); experiment: cell-based or functional assay
[2] = biological target: human C1q (Quidel, San Diego, Calif.) (human) (UniProt P02745); experiment: C1q binding ELISA, antibody coated on plate, 2 µg/ml C1q
[3] = biological target: CD20 antigen on WIL2-S cells (UniProt P11836); experiment: flow cytometry on WIL2-S cells expressing CD20
Chain of CD20 antigen on WIL2-S cells (P11836 whole entry): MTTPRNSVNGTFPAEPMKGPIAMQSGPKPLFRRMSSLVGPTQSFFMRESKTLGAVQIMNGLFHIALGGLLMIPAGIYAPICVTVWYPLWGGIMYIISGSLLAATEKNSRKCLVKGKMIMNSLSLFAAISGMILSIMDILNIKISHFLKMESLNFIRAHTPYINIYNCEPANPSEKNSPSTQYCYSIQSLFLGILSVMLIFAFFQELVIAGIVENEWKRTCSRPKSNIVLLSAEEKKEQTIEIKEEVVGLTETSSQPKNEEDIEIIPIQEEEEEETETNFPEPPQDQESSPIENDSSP

[4] = biological target: human C1q (Quidel, San Diego, Calif.) (human) (UniProt P02745); experiment: C1q binding ELISA, antibody coated on plate, 2 µg/ml C1q; remark: listed apart in the source

Chain of human C1q (Quidel, San Diego, Calif.) (human) (P02745 23-245 limits assumed, chain 1 of 3): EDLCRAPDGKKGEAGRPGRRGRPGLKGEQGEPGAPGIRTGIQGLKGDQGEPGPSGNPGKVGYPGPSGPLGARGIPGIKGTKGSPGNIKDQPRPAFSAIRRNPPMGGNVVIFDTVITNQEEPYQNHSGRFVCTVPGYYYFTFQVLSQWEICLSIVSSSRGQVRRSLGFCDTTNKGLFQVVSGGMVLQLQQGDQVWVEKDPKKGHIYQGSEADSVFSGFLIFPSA
Chain of human C1q (Quidel, San Diego, Calif.) (human) (P02746 28-253 limits assumed, chain 2 of 3, further chain): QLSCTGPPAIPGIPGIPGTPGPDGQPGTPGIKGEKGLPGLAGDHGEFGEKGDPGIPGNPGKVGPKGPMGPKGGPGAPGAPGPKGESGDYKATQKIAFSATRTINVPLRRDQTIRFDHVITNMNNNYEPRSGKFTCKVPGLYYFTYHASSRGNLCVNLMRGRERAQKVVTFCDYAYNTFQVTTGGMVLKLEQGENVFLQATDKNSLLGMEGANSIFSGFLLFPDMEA
Chain of human C1q (Quidel, San Diego, Calif.) (human) (P02747 29-245 limits assumed, chain 3 of 3, further chain): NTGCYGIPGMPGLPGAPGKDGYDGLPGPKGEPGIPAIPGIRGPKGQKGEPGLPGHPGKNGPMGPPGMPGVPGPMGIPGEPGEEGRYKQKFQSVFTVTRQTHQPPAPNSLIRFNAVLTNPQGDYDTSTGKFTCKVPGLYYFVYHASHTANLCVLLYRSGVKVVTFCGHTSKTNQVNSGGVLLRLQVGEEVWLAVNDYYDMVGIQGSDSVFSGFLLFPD

## C2B8 double mutant K326A-E333A (antibody)
[1]
  CDC, fold better than wild type C2B8: > 2 fold
[2]
  fold better binding than wild type C2B8: > 3 fold

## C2B8 double mutant K326M-E333S (antibody)
[1]
  CDC, fold better than wild type C2B8: > 2 fold
[2]
  fold better binding than wild type C2B8: > 3 fold

## C2B8 mutant E318A (antibody)
[3]
  EC50 as percentage of the wild type: 89%
[1]
  CDC, percentage of the wild type: 108%
[2]
  percent decrease in binding against wild type C2B8: 30%

## C2B8 mutant E333A (antibody)
[2]
  EC50: 0.98 µg/mL
  percent increase in binding against wild type: 30%

## C2B8 mutant E333D (antibody)
[2]
  EC50: 1.22 µg/mL

## C2B8 mutant E333G (antibody)
[2]
  EC50: 1.14 µg/mL

## C2B8 mutant E333Q (antibody)
[2]
  EC50: 1.52 µg/mL

## C2B8 mutant E333S (antibody)
[2]
  EC50: 0.81 µg/mL
  fold increase in binding against wild type: 2 fold

## C2B8 mutant E333V (antibody)
[2]
  EC50: 1.18 µg/mL

## C2B8 mutant K320A (antibody)
[3]
  EC50 as percentage of the wild type: 102%
[1]
  CDC, percentage of the wild type: 108%

## C2B8 mutant K326A (antibody)
[2]
  EC50: 1.03 µg/mL
  percent increase in binding against wild type: 30%

## C2B8 mutant K326D (antibody)
[4]
  fold increase in binding against wild type: > 2 fold
[2]
  EC50: 0.76 µg/mL

## C2B8 mutant K326E (antibody)
[4]
  fold increase in binding against wild type: > 2 fold
[2]
  EC50: 1.08 µg/mL

## C2B8 mutant K326G (antibody)
[2]
  EC50: 0.95 µg/mL

## C2B8 mutant K326M (antibody)
[4]
  fold increase in binding against wild type: > 2 fold
[2]
  EC50: 0.67 µg/mL

## C2B8 mutant K326V (antibody)
[2]
  EC50: 1.3 µg/mL

## C2B8 mutant K326W (antibody)
[4]
  fold increase in binding against wild type: > 2 fold
[2]
  EC50: 0.47 µg/mL
  fold increase in binding against wild type: 5 fold

## C2B8 mutant K334A (antibody)
[2]
  EC50: 1.07 µg/mL
  percent increase in binding against wild type: > 30%

## C2B8 mutant P329A (antibody)
[3]
  EC50 as percentage of the wild type: 112%

## C2B8 mutant P331A (antibody)
[3]
  EC50 as percentage of the wild type: 103%
[2]
  fold lower binding than wild type C2B8: 60 fold

## C2B8 mutant with A327 in the human IgG1 constant region changed to glycine (antibody)
[2]
  percent increase in binding against wild type: 50%
